The record followed here is article PMC10269683, “comCDE (Competence) Operon Is Regulated by CcpA in Streptococcus pneumoniae D39”.

Data set [1] has as its target T1, CcpA (Streptococcus pneumoniae D39, UniProt A0A0H2ZQ65 1-336). Description: EMSA; increasing CcpA; EMSA: 10 mM Tris-HCl pH 7.4, 1 mM DTT, 1 mM EDTA, 50 mM KCl, 5% glycerol, 50 ug/mL BSA, 0.05% NP-40, 20 min 37 C; footprinting binding 30 min 25 C. The settings on record: protein: recombinant; label: biotin; blunt.
The target in data set [2] is T1, CcpA. As to the kind of experiment: EMSA; complex at 1 ug CcpA, 1 ng probe; unlabeled Np54 (100 ng) diminished complex; EMSA: 10 mM Tris-HCl pH 7.4, 1 mM DTT, 1 mM EDTA, 50 mM KCl, 5% glycerol, 50 ug/mL BSA, 0.05% NP-40, 20 min 37 C; footprinting binding 30 min 25 C. The settings on record: protein: recombinant; label: 5' biotin; blunt. (In general: Mobility shift assays separate free from complexed probe on a gel.)

B1: Mut cre1 (dsDNA)
DNA 1: ATATAATAGATGCATGTCATGTGAATTCCACGTTGCATCTAATTAAGTACACTTTGGGAGAAAAAAATGACAGTTGAGA
DNA 2: TCTCAACTGTCATTTTTTTCTCCCAAAGTGTACTTAATTAGATGCAACGTGGAATTCACATGACATGCATCTATTATAT
B1: the binding result in data set [1] is given as “binds”.

B2: Mut cre2 (dsDNA)
DNA 1: ATATAATAGCAAAGCTGGGAATTTTCCCGGCTTTTTTCTTAAAAAAGTACACAACGATAGATATTAGGTAGAATGGAGA
DNA 2: TCTCCATTCTACCTAATATCTATCGTTGTGTACTTTTTTAAGAAAAAAGCCGGGAAAATTCCCAGCTTTGCTATTATAT
Consider B2, for which the binding result in data set [1] was “binds”.

B3: P54 (cre3+cre4) (dsDNA)
DNA 1: TAAGTTAGCTTACAAGAAAAAACATTTTAGGAGATTTTATTATGAAAAACACAG
DNA 2: CTGTGTTTTTCATAATAAAATCTCCTAAAATGTTTTTTCTTGTAAGCTAACTTA
Consider B3, for which the binding result in data set [2] was “binds”.
